Reference: doi:10.1101/2021.06.09.447721

Target: GST-NET-Ct^ΔMIM (human) (UniProt P23975)
Test: pull-down

## MAD2 (endogenous) (from UniProt Q13257 1-205) (natural protein)
  reduction of MAD2 binding against wild type GST-NET-Ct: 70%
